Measured values: patent US9580487B2, “Method of treating stomach or bowel-related disorders by administering glucagon-like-peptide-2 (GLP-2) analogues” (Zealand Pharma A/S, priority 2005, dated 2017)

Key:
male C57BL mice [1] = experiment: Screening for intestinal growth effects (small intestine and colon mass relative to body weight, small intestine-colon sensitivity index); type: in vivo
Description: The ability of the present compounds to stimulate intestinal growth was determined in male C57BL mice. Individual groups (n=6) of mice were given 30 nmol/kg of each compound, s.c, twice daily for ten consecutive days. For comparison purposes other groups of animals were given either an equimolar dose of [Gly2]GLP-2 (SEQ ID NO:54) or vehicle (phosphate buffered saline, pH 7.4) in the same dosing regimen. Twenty-four hours after the last dose of compound had been given the mice were sacrificed and the small intestine (from the pylorus to the cecum) and the colon (intestine distal to cecum) was emptied and weighed. To correct for slight difference in body weight (BW), the organ mass of the small intestine (SI) and colon were expressed relative to BW. The non-selective reference compound [Gly2]GLP-2 (SEQ ID NO:54) has been reported to stimulate gastrointestinal growth in both esophagus, stomach, small intestine and colon and to evaluate differences in growth pattern induced by compounds, the small intestine-colon sensitivity index of compound X was calculated as:
(SI/Colon)X/(SI/Colon)[Gly2]GLP-2%
Compounds with a small intestine-colon sensitivity greater than or equal to 1.05 were considered relatively selective for the small intestine (Table 15).
Compounds with a small intestine-colon sensitivity smaller than or equal to 0.95 were considered relatively selective for the colon (Table 15).

[2] = system: colonic neoplasms in mice; details: cited from earlier work
[3] = Chemical stability testing: incubation in HCl, NaOH, H2O2 or NH4HCO3 at 40° C., remaining purity by RP-HPLC; type: physicochemical; details: 40° C., 2 mg/ml, relative to the purity at T=0
Description: The GLP-2 analogues were dissolved in purified water and subsequently diluted in solutions containing HCl, NaOH, H2O2 or NH4HCO3. The solutions were incubated at 40° C. to produce hydrolysis, deamidation and oxidation products. The samples were analyzed by RP-HPLC and the percentage of remaining intact compound was determined as a measure for the relative stability. The major degradation products were tentatively identified by LC-MS.
The GLP-2 analogues tested and the reference Gly^2-GLP-2, ZP1559 (SEQ ID NO:54), were dissolved in water and subsequently diluted into solutions containing HCl, NaOH, H2O2 or NH4HCO3. The samples were incubated at 40° C. to generate hydrolysis, deamidation and oxidation products, respectively. The compounds were analysed by RP-HPLC for purity of the original main peak and by LC-MS for confirmation of the identity by mass of the main peak and major degradation products.
The GLP-2 analogues were first dissolved in MQW to a concentration of 4 mg/ml and then further diluted in the stress solutions at a 1:1 ratio (e.g. 125 μl plus 125 μl). The final concentrations were 2 mg/ml of the GLP-2 analogues for stress conditions with 0.1 M HCl, 0.01M NaOH, 0.1 M NH4HCO3 and 0.5% H2O2, respectively.
The solutions were incubated at 40° C. in the dark and then diluted in Eluent A to a concentration of 0.5 mg/ml (addition of 750 μl) prior to analyses by RP-HPLC and by LC-MS.
The RP-HPLC analyses were performed on an Agilent Series 1100 HPLC system under control of the ChemStation (Revision A.08.03 [847]) software from Agilent Technologies, Inc. The raw data and the results of the peak integration were deposited on the ChemStore C/S server by the use of Agilent Technologies Revision B01.03 software.
The results are shown in Table 9 as the compound purity measured by RP-HPLC after incubation under stress conditions. This purity is a measure for the remaining intact compound after incubation in stress solutions, relative to the purity measured a T=0.

male C57BL mice [4] = experiment: Dose-response effect on intestinal growth (SI mass, SI-Colon Sensitivity Index, colon and stomach mass); type: in vivo; details: 5-405 nmol/kg s.c. b.i.d. for three days, vs vehicle
Description: Values are means±SEM. *: P<0.05 relative to the equimolar dose of [Gly2]GLP-2 (SEQ ID NO:54).
FIG. 2 is a set of graphs showing full dose-response data of four small intestine selective compounds (compound nos. 1846 (SEQ ID NO:34), 1855 (SEQ ID NO:43), 1848 (SEQ ID NO:36), 1858 (SEQ ID NO:46)) on the Small Intestine (SI)-to-Colon Sensitivity Index mice relative to the non-selective reference compound [Gly2]GLP-2 (SEQ ID NO:54). Compounds were administered by subcutaneous injection b.i.d. for three days in C57BL mice at the following doses: 0 (vehicle), 5, 15, 45, 135, 405 nmol/kg (n=6/dose group). Responses at each dose level were compared with responses obtained at the same dose level in pair-treated mice treated with the non-selective reference compound [Gly2]GLP-2 (SEQ ID NO:54). The SI-Colon Sensitivity Index was calculated as SI-mass relative to colon mass and the Sensitivity Index at each dose level was normalized to the response observed with the non-selective reference compound [Gly2]GLP-2 (SEQ ID NO:54). […] Values are means±SEM. *: P<0.05 relative to the equimolar dose of [Gly2]GLP-2.
FIG. 4 is a set of graphs showing full dose-response data of three small intestine selective compounds (compound nos. 1857 (SEQ ID NO:45), 1820 (SEQ ID NO:10), and 1849 (SEQ ID NO:37)) on the Small Intestine (SI)-to-Colon Sensitivity Index mice relative to the non-selective reference compound [Gly2]GLP-2 (SEQ ID NO:54). Compounds were administered by subcutaneous injection b.i.d. for three days in C57BL mice at the following doses: 0 (vehicle), 5, 15, 45, 135, 405 nmol/kg (n=6/dose group). Responses at each dose level were compared with responses obtained at the same dose level in pair-treated mice treated with the non-selective reference compound [Gly2]GLP-2 (SEQ ID NO:54). The SI-Colon Sensitivity Index was calculated as SI-mass relative to colon mass and the Sensitivity Index at each dose level was normalized to the response observed with the non-selective reference compound [Gly2]GLP-2 (SEQ ID NO:54). […] Values are means±SEM. *: P<0.05 relative to the equimolar dose of [Gly2]GLP-2 (SEQ ID NO:54).
Compounds were administered by subcutaneous injection b.i.d. for three days in C57BL mice at the following doses: 0 (vehicle), 5, 15, 45, 135, 405 nmol/kg (n=6/dose group). […] Values are means±SEM. *: P<0.05 relative to the vehicle.
The dose-response effect of 1820 (SEQ ID NO:10), 1855 (SEQ ID NO:43), ZP1846 (SEQ ID NO:34), 1858 (SEQ ID NO:46), 1849 (SEQ ID NO:37), 1848 (SEQ ID NO:36), and 1857 (SEQ ID NO:45) on small intestinal mass was determined in male C57BL mice. Individual groups (n=6) of mice were given 5, 15, 45, 135 or 405 nmol/kg of each compound, s.c, twice daily for three consecutive days. For comparison purposes other groups of animals were given either equimolar doses of [Gly2]GLP-2 (SEQ ID NO:54) or vehicle (phosphate buffered saline, pH 7.4) in the same dosing regimen. Twenty-four hours after the last dose of compound had been given the mice were sacrificed and the small intestine (from the pylorus to the cecum emptied and weighed to determine the effect on small intestinal mass.

[5] = Tentative identification of major degradation products in stress test samples by LC-MS; type: physicochemical; details: 3 days at 40° C. in 0.5% H2O2
Description: Analytical LC-MS analyses were performed on an Agilent Technologies 1100 HPLC instrument consisting of an on-line degasser, quaternary gradient pump, an auto sampler, a column oven, an UV detector. The HPLC instrument was interfaced with a Micromass LCT (ESI-TOF) mass spectrometer under control of Masslynx 3.5 software, from MicroMass, UK.
Major degradation products in the stress test samples were tentatively identified by the LC-MS method. Any isomers to the parent compounds and minor degradation products were not observed by this analytical LC-MS method.

With “H-[Gly2]hGLP-2-OH [Compound 1559, reference compound]” the “Preferential growth of small intestine versus colon (small intestine-colon sensitivity)” value (male C57BL mice [1]; 30 nmol/kg s.c. twice daily, ten days, relative to [Gly2]GLP-2) was “without preferential growth in small intestine or colon”, the “colon mass relative to body weight, % [Gly2]GLP-2” value (male C57BL mice [1]; male C57BL mice, 30 nmol/kg s.c. twice daily for ten days) was 100 % [Gly2]GLP-2 and the “small intestine-colon sensitivity index, (SI/Colon)X/(SI/Colon)[Gly2]GLP-2 %” value (male C57BL mice [1]; male C57BL mice, 30 nmol/kg s.c. twice daily for ten days, third value column) was 100 % [Gly2]GLP-2. The “Growth of colonic neoplasms” value [2] was “accelerate the growth of colonic neoplasms in mice”, the “Purity H2O2 0.5% 3 days” value ([3]; RP-HPLC) was under 5% and the “Purity HCl 0.1M 12 days” value ([3]; RP-HPLC) was 57%. The “Purity NH4HCO3 0.1M 6 days” value ([3]; pH 8, RP-HPLC) was 66%, the “Growth stimulation of small intestine, colon and stomach mass” value (male C57BL mice [4]) was “produced dose-dependent growth stimulation in small intestine, colon and stomach” and the “Intact product found by LC-MS after H2O2 stress” value [5] was “No product intact”.
